Data taken from publication PMC3682517, “Engineering A-kinase Anchoring Protein (AKAP)-selective Regulatory Subunits of Protein Kinase A (PKA) through Structure-based Phage Selection*^([image sbox.jpg])” (The Journal of Biological Chemistry, 2013).
Blank lines part the entries; values can stand above or below the binder they belong to.

How the values were obtained:
[1] = target: T1, wild-type RII(1–45) D/D domain fragment (UniProt P13861 1-45, biotinylated when used as AlphaScreen tracer (site not stated)); test: AlphaScreen or HTRF; competition binding: biotinylated R subunit D/D domain 0.3 nM (tracer), GST-AKAP RII-binding region 3 nM (target), increasing untagged R subunit D/D domain; IC50 approximates Kd; 20 mM HEPES pH 7.2, 100 mM NaCl, 0.1% BSA; 1 h at 4 °C; one-site competition fit; details: both partners purified
T1 construct: PKA regulatory subunit RIIα, residues 1-45, docking and dimerization (D/D) domain; His6 tag is PreScission-cleavable; also called WT RII; RII D/D domain; not shown: V5, C-terminal, kept

[2] = target: T2, R_(Select)AKAP18(1–45) D/D domain fragment (UniProt P13861 2-46, Val-3 in R_(Select)AKAP18 | Leu-5 in R_(Select)AKAP18 | Asp-10 in each …, biotinylated when used as AlphaScreen tracer (site not stated)); test: as above; details: both partners purified
T2 construct: PKA regulatory subunit RIIα, residues 1-45 (D/D domain), variant selected by phage display against AKAP18; changes at positions 3, 5, 10 and 14; not shown: V5, C-terminal, kept

Kd [1]: 16.3 nM
Kd [2]: 162 nM
B1: GST-AKAP18 anchoring helix fragment (domain or fragment)
chain: NGGEPDDAELVRLSKRLVENAVLKAVQQYLEETQNKNKPGEGSSVKTEAADQNGNDNENNRK

Kd [1]: 12.5 ± 1.8 nM
B2: GST-AKAP2 anchoring helix fragment (domain or fragment)
chain: GDSPLVDDPLEYQAGLLVQNAIQQAIAEQVDKAVSKTSRDGAEQQGPEATVEEAEAAAFG
